Measured values published in patent publication US20100266532A1, “METHODS FOR INHIBITING SCARRING” (Renovo Limited, priority 2007, published 2010).

Tests used:
[1] = system: 1 centimetre experimental wound; experiment: Clinical trial, single intradermal injection, lay panel VAS scar scoring (ToScar); type: in vivo, human
Experimental: FIG. 1 illustrates data from a clinical trial conducted by the inventors to generate a dose response curve indicative of the anti-scarring effect achieved using various different doses of TGF-β3 administered in a single incidence of treatment. Either TGF-β3 or placebo were administered as a single intradermal injection to a 1 centimetre experimental wound. […] To test the treatment effect, ToScar of the TGFβ3 scar was subtracted from the anatomically matched Placebo ToScar on the other arm on each subject. ToScar was calculated as the sum of VAS scores (mm) from week 6 and months 3, 4, 5, 6 and 7. The scars were scored by an independent lay panel at 6 time points after dosing (week 6, months 3-7) using a 100 mm VAS line.

human wounds = experiment: Human study, two incidences of treatment approximately 24 hours apart, lay panel VAS scar scoring and macroscopic images; type: in vivo
Experimental: In this study, control treatments using TGFβ3 and Placebo were administered in two incidences of treatment (each by intradermal injection), the first prior to wounding and the second approximately 24 hours after wounding. […] To test the effect of control treatment with TGF-β3, ToScar of the TGFβ3 scar was subtracted from the anatomically matched Placebo ToScar on the other arm on each subject. ToScar was calculated as the sum of VAS scores (mm) from week 6 and months 3, 4, 5, 6 and 7. The scars were scored by an independent lay panel at 6 time points after dosing (week 6, months 3-7) using a 100 mm VAS line.
The macroscopic images are from within subject scars produced on healing of placebo treated and TGFβ3 control treated wounds (dosed twice with 50 ng, 200 ng or 500 ng/100 μl TGFβ3 per cm of wound margin in two incidences of treatment approximately 24 hours apart) in a clinical trial conducted by the inventors. The same amount of TGF-β3 was administered in each incidence of treatment, and the amounts used are shown in the captions (50 ng/100 μl TGFβ3 per cm of wound margin shown top left, with placebo from the same subject top right; 200 ng/100 μl TGFβ3 per cm of wound margin shown middle left, with placebo from the same subject middle right; and 500 ng/100 μl TGFβ3 per cm of wound margin shown bottom left, with placebo from the same subject bottom right).
TGFβ3 and Placebo were administered by means of intradermal injection in two incidences of treatment, the first prior to wounding and the second approximately 24 hours later. […] The scars were scored by an independent lay panel at 6 time points after dosing (week 6, months 3-7) using a 100 mm VAS line.

experimental rat wounds = experiment: Rat model of scar formation, dose response, two equal doses separated by 24 hours; type: in vivo; settings: repeated treatment with low doses or with high doses (range 5-500 ng/cm), 24 hours apart
Experimental: FIG. 10 illustrates a “bell-shaped” dose response curve in a rat model of scar formation in response to different doses of TGF-β3. TGF-β3 was provided to wounds via two injections of TGF-β3 separated by approximately 24 hours. The amount of TGF-β3 provided in each injection was the same in each incidence of treatment.
FIG. 10 illustrates that the TGF-β3 “bell-shaped” dose response curve observed in human subjects is also found in experimental animals. Here, TGF-β3 was provided to experimental rat wounds, in two incidences of treatment separated by 24 hours (the first incidence of treatment occurring at, or around, the time of wounding). The amount of TGF-β3 administered per centimetre of wound in each incidence of treatment is shown on the X-axis (5 ng/cm, 50 ng/cm, 200 ng/cm or 500 ng/cm).

[2] = system: 1 cm incisional rat wounds; experiment: Rat model of wound healing and scarring, escalating versus constant doses, macroscopic VAS; type: in vivo
Experimental: FIG. 11 is a graph comparing the mean differences between macroscopic VAS scores of scars formed on healing of 1 cm incisional rat wounds treated with a diluent control (“placebo treated wounds”), and scars formed on healing of wounds provided with one of the following regimes: • i) TGF-β3 control treatment using 20 ng TGF-β3 per centimetre; • ii) TGF-β3 control treatment using 100 ng TGF-β3 per centimetre; or • iii) TGFβ3 treatment using escalating doses of TGF-β3 administered in sequential incidences of treatment.
In each case the wounds were subject to two incidences of treatment, the first prior to wounding and the second approximately 24 hours later.
Placebo treated control wounds were provided with two incidences of treatment, each of which consisted of administration of a diluent. These placebo treated wounds provide a baseline value for scarring, with reference to which scar inhibition produced by TGF-β3 treatments may be determined. “Control treated wounds” were provided with two incidences of treatment, each comprising injections of TGF-β3 at either 20 ng/100 μl or 100 ng/100 μl (the same concentration of TGF-β3 being injected in each incidence of treatment). The “treated wounds” were provided with an escalating dose regimen in which the first incidence of treatment comprised an injection of 20 ng/100 μl TGFβ3, while the second incidence of treatment comprised an injection of 100 ng/100 μl TGFβ3.
Each animal received two wounds, and these were arranged so that the wounds of each animal included placebo treated wounds, as well as either treated wounds (examples treated using escalating doses of TGF-β3 administered in sequential incidences of treatment), or control treated wounds (receiving control treatment with TGF-β3 at the same dose in each incidence of treatment). This permits comparison between scars formed on healing of placebo treated wounds and treated or control treated wounds within the same subject. […]
Scars were assessed, and VAS scores produced, 70 days after wounding. […]

B1: TGF-β3: well-known anti-scarring growth factor, Sequence ID No. 1; labelled "Juvista" in FIGS. 8 and 9 (protein, listed as Homo sapiens)
chain: ALDTNYCFRNLEENCCVRPLYIDFRQDLGWKWVHEPKGYYANFCSGPCPYLRSADTTHSTVLGLYNTLNPEASASPCCVPQDLEPLTILYYVGRTPKVEQLSNMVVKSCKCS
[1]; single application of 50 ng, 200 ng or 500 ng/100 μl per cm of wound margin
  inhibition of scarring: effectively inhibited
[1]; single application, 200 ng/100 μl per cm of wound margin, maximum improvement
  scar improvement (placebo ToScar minus TGFβ3 ToScar, sum of VAS scores), average: > 50 mm
[1]; single application, 500 ng/100 μl per cm of wound margin, versus 200 ng
  drug efficacy at top of dose range: reduction in drug efficacy
Human wounds; 500 ng in each of two incidences of treatment separated by 24 hours
  effectiveness relative to other doses: notably more effective than the others
Human wounds; 500 ng per centimetre in each incidence of treatment, approximately 24 hours apart
  effectiveness relative to other doses (mean VAS scores over time): surprisingly more effective than the other methods of treatment
Human wounds; 500 ng/100 μl per cm twice approximately 24 hours apart (highest dose), versus 50 and 200 ng
  inhibition of scarring, macroscopic images: greatest inhibition of scarring achieved
Human wounds; two applications of 5, 50, 200 and 500 ng/100 μl per cm, prior to and approximately 24 hours post-wounding
  inhibition of scarring: effectively inhibited
Human wounds; two applications of 5, 50, 200 or 500 ng/100 μl per cm, prior to wounding and approximately 24 hour post-wounding, week 6 to month 7
  inhibition of scarring (mean VAS scores over time): scarring is inhibited
Experimental rat wounds
  inhibition of scarring: little inhibition of scarring
[2]; dosed twice with either 20 ng/100 μl or 100 ng/100 μl, 24 hours apart, 70 days after wounding
  scarring compared to placebo (macroscopic VAS): displayed a reduction in scarring
[2]; escalating: 20 ng/100 μl then 100 ng/100 μl approximately 24 hours later, 70 days after wounding
  inhibition of scarring (macroscopic VAS) versus constant doses: much larger magnitude of effect
[2]; escalating: 20 ng/100 μl then 100 ng/100 μl approximately 24 hours later, 70 days post wounding
  inhibition of scarring, macroscopic images: greatest inhibition in scarring
